± gives the standard deviation of the averaged measurements.
Test system: Saccharomyces cerevisiae
Experiment: protein stability index of tFT-peptide fusion (C-terminal peptide) (PSI (0-1 scale)); higher = more stable (slower turnover)
Settings: genetic background: das1 deletion; temperature: 30 C
Description: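 MPS profiling in S. cerevisiae of the yeast C-terminome library: the last 12 aa of each annotated ORF are fused to the C-terminus of a sfGFP-mCherry timer, after a GGGS linker. Cells are FACS-sorted into 8 mCherry/sfGFP bins and deep-sequenced. PSI runs from 0 (unstable) to 1 (stable); wild type and das1Δ backgrounds, two technical replicates each.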

Sequence | protein stability index
IASQNSLGWNEV [MSB2 C-terminal 12 aa] | 0.69667 ± 0.00047
ICYTFKHLVSHK [FRT2 C-terminal 12 aa] | 0.691 ± 0.016
IDEMYRGGISMN [AIM32 C-terminal 12 aa] | 0.693 ± 0.013
IEAPQFYRYWSA [SWI3 C-terminal 12 aa] | 0.724 ± 0.033
IEEMLEIISGYA [RPC17 C-terminal 12 aa] | 0.5664 ± 0.0013
IEERLVAIAEQD [SCL1 C-terminal 12 aa] | 0.7091 ± 0.0065
IELIQNMNKESF [YOR131C C-terminal 12 aa] | 0.696 ± 0.03
IEQYLQTYGASA [URA5 C-terminal 12 aa] | 0.708 ± 0.011
IEVGADSYAEEF [TUB3 C-terminal 12 aa] | 0.689 ± 0.018
IEVGNGASVLIQ [TRS65 C-terminal 12 aa] | 0.692 ± 0.01
IFQEAIDKTVEI [YML082W C-terminal 12 aa] | 0.708 ± 0.0011
IGAPASGLRIRV [COP1 C-terminal 12 aa] | 0.693 ± 0.0074
IGGLKREAEASA [GDH2 C-terminal 12 aa] | 0.695 ± 0.041
IHDFPKSHIVDF [IKI3 C-terminal 12 aa] | 0.7325 ± 0.0027
IIRPLVLKNFII [YDR371C-A C-terminal 12 aa] | 0.5029 ± 0.0013
IIWEKRNPEQKI [ERG11 C-terminal 12 aa] | 0.702 ± 0.023
IKARNMKIDRTQ [COG4 C-terminal 12 aa] | 0.681 ± 0.018
IKGWFVNGQVPR [PEX17 C-terminal 12 aa] | 0.716 ± 0.0072
IKLEDAKGTHIK [RAD59 C-terminal 12 aa] | 0.695 ± 0.013
IKMIKELGNHRL [RMD6 C-terminal 12 aa] | 0.684 ± 0.0078
IKSLFSLAKEAS [MSC7 C-terminal 12 aa] | 0.703 ± 0.01

Sequence | protein stability index
IKVDNIVHIRND [YFH7 C-terminal 12 aa] | 0.6928 ± 0.0038
ILEAWEKVDDSL [SNX4 C-terminal 12 aa] | 0.734 ± 0.013
ILQCFTDEILNC [NDJ1 C-terminal 12 aa] | 0.691 ± 0.0087
ILRILANSNDDN [BXI1 C-terminal 12 aa] | 0.699 ± 0.036
ILSWYFLETVAV [YMR254C C-terminal 12 aa] | 0.317 ± 0.024
INEDNKAYSLDY [RIM4 C-terminal 12 aa] | 0.69877 ± 0.00035
IPLTEFDLSDSK [YMR253C C-terminal 12 aa] | 0.701 ± 0.0095
IQESRFNFYLIT [RKM5 C-terminal 12 aa] | 0.683 ± 0.023
IRDEGLNNLDTA [YPL257W C-terminal 12 aa] | 0.6944 ± 0.006
IRLFRSARRWVG [ADE6 C-terminal 12 aa] | 0.7017 ± 0.0011
IRSRGRLKEVYF [SLX5 C-terminal 12 aa] | 0.732 ± 0.026
ISDNVPKEAIIM [PSA1 C-terminal 12 aa] | 0.686 ± 0.023
ISGGTFGFRSEI [HBT1 C-terminal 12 aa] | 0.696 ± 0.02
ISIVACALWLVF [DCW1 C-terminal 12 aa] | 0.288 ± 0.003
ISKVSNTRVCCT [YAL004W C-terminal 12 aa] | 0.6431 ± 0.0031
ISSKSIPSVDDK [YIL071W-A C-terminal 12 aa] | 0.677 ± 0.025
ISVSSGIENFAT [YJL202C C-terminal 12 aa] | 0.692 ± 0.042
ITFIASLMTLNK [SAC6 C-terminal 12 aa] | 0.66916 ± 0.0005
ITSQDILASTDY [YHL009W-B C-terminal 12 aa] | 0.688 ± 0.015
ITSYNFLGVPFK [YLR406C-A C-terminal 12 aa] | 0.746 ± 0.018
IVALILNTRGSE [VMA11 C-terminal 12 aa] | 0.683 ± 0.0096

Sequence | protein stability index
IVKAVKEVLSIE [PDB1 C-terminal 12 aa] | 0.683 ± 0.0044
IVLPENIPLLYK [YJL195C C-terminal 12 aa] | 0.694 ± 0.037
IVPLSELEKTLI [XKS1 C-terminal 12 aa] | 0.696 ± 0.016
IVPSQGKKVKFD [NOP13 C-terminal 12 aa] | 0.679 ± 0.0068
IYKCEDERIDYF [KOG1 C-terminal 12 aa] | 0.6594 ± 0.00099
IYLLSDYEKDNI [CMR2 C-terminal 12 aa] | 0.709 ± 0.044
KAELDRYKRENQ [SEM1 C-terminal 12 aa] | 0.7052 ± 0.0058
KAFVIGAIALVA [YMR317W C-terminal 12 aa] | 0.331 ± 0.01
KALELILNILEH [SNU56 C-terminal 12 aa] | 0.683 ± 0.033
KARLTEEQHRHE [CWC21 C-terminal 12 aa] | 0.705 ± 0.0052
KAVEFTTTALSS [MKT1 C-terminal 12 aa] | 0.715 ± 0.0089
KCQTKHTFTGLI [YGR269W C-terminal 12 aa] | 0.695 ± 0.0072
KDEINYLNSKLK [SPA2 C-terminal 12 aa] | 0.692 ± 0.07
KDVIVDHHSDLN [SAP4 C-terminal 12 aa] | 0.706 ± 0.048
KEQEESEKDKEN [BFR1 C-terminal 12 aa] | 0.732 ± 0.015
KFDEKTATLVDE [YDL144C C-terminal 12 aa] | 0.692 ± 0.027
KFETPGEYKKRI [LCL3 C-terminal 12 aa] | 0.697 ± 0.029
KFPLSVKKKIRI [YNR075C-A C-terminal 12 aa] | 0.6821 ± 0.0027
KGKLITKVNNEE [YML131W C-terminal 12 aa] | 0.648 ± 0.029
KGPSKTALLSKK [PKP1 C-terminal 12 aa] | 0.707 ± 0.021
KGVIGTNPPITH [MPC3 C-terminal 12 aa] | 0.7045 ± 0.0018

Sequence | protein stability index
KGVVTLEEILKA [COQ11 C-terminal 12 aa] | 0.712 ± 0.012
KHKNILPFNFTK [YEL074W C-terminal 12 aa] | 0.703 ± 0.037
KIGKGKLYFAIV [YDR220C C-terminal 12 aa] | 0.666 ± 0.011
KIITLDLSNYAE [SMC1 C-terminal 12 aa] | 0.709 ± 0.057
KIRPTFGDNQAS [HST3 C-terminal 12 aa] | 0.6923 ± 0.001
KISLLSHAQCYK [YIR016W C-terminal 12 aa] | 0.668 ± 0.024
KKGETFGYDKWW [OPT1 C-terminal 12 aa] | 0.725 ± 0.021
KKGPKFKSRKKL [RRP12 C-terminal 12 aa] | 0.748 ± 0.037
KKHRVGMPKEDK [DIC1 C-terminal 12 aa] | 0.67 ± 0.013
KKIIKKKDFYHR [YOR011W-A C-terminal 12 aa] | 0.728 ± 0.015
KKKDASQEESLI [VMA2 C-terminal 12 aa] | 0.6922 ± 0.0019
KKKKNASTCTIL [RSR1 C-terminal 12 aa] | 0.7494 ± 0.0014
KKKKQIKNFQFG [YMR290W-A C-terminal 12 aa] | 0.687 ± 0.0087
KKLDGEVLCRVK [MRPS8 C-terminal 12 aa] | 0.659 ± 0.021
KKLNRKIASIFN [ZEO1 C-terminal 12 aa] | 0.718 ± 0.011
KKLRQPKEGETF [MMS2 C-terminal 12 aa] | 0.7046 ± 0.00082
KKRKFGKVRIKN [NEJ1 C-terminal 12 aa] | 0.706 ± 0.047
KLAEHGAKKQKI [GCD10 C-terminal 12 aa] | 0.7217 ± 0.0024
KLESSKNTSHEK [NFU1 C-terminal 12 aa] | 0.725 ± 0.0084
